Laboratory results reported in patent US10286078B2, “Modified therapeutic agents and compositions thereof” (THE CALIFORNIA INSTITUTE FOR BIOMEDICAL RESEARCH, priority 2013, dated 2019).
Read-outs that look alike come from different tables or passages of the source. Where no end group is shown, it is not given here.

Legend:
human Nav1.7 = molecular target: T1, human Nav1.7 (Homo sapiens, UniProt Q15858); assay: NaV 1.7 current measurement on IonFlux HT; type: cell-based; conditions: HEK293 cells overexpressing alpha and beta-1 subunits of human Nav1.7
T1 construct: host or cells: HEK293
T1 sequence (Q15858 whole entry): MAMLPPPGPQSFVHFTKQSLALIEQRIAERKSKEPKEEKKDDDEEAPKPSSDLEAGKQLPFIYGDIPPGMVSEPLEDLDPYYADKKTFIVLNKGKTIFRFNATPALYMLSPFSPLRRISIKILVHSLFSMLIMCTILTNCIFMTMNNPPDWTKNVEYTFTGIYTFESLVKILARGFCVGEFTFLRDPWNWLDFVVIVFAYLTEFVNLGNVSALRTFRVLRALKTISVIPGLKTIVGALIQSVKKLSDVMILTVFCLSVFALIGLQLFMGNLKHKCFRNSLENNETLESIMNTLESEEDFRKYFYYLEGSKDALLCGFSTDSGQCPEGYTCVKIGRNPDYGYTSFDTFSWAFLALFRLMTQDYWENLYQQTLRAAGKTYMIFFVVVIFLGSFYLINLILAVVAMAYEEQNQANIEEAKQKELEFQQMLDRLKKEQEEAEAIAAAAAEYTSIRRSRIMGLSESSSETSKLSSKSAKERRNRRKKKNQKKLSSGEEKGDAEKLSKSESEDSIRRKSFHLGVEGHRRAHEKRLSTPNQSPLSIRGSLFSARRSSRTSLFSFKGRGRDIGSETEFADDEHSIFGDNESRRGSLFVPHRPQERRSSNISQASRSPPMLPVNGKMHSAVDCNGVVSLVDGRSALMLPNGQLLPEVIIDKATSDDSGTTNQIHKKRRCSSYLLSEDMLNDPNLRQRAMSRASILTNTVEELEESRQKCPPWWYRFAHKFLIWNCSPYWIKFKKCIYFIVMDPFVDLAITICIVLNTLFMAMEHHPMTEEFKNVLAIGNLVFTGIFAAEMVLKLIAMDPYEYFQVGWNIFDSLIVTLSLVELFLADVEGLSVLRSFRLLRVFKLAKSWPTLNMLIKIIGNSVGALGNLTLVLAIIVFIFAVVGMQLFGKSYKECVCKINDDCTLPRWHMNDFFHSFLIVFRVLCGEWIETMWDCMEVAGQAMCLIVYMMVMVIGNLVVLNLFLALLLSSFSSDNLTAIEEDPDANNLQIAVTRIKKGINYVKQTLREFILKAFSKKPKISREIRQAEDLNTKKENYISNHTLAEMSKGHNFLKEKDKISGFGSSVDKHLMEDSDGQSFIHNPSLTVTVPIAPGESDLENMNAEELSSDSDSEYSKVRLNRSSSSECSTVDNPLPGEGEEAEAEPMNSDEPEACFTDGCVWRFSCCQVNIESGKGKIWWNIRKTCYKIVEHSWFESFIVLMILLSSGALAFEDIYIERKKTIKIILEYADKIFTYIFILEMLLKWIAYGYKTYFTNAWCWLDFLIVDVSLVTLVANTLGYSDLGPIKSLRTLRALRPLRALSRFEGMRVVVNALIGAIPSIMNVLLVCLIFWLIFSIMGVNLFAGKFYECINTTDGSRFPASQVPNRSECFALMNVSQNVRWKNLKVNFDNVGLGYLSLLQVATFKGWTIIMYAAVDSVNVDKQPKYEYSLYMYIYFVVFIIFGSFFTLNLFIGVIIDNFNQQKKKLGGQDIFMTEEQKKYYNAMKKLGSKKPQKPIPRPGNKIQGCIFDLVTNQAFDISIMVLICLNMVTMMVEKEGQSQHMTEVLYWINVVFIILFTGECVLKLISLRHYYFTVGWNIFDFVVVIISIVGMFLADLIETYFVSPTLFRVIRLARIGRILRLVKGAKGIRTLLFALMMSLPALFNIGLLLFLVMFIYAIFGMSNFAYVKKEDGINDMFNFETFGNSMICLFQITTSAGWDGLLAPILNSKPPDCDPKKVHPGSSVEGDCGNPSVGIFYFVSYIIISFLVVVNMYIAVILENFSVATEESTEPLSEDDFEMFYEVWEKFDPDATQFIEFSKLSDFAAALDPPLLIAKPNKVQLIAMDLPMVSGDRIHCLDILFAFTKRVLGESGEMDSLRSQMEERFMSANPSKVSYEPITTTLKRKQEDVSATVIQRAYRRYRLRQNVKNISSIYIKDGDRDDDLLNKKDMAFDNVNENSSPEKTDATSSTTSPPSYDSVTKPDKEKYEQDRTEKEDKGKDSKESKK
T1 sequence (Q07699 19-218, further chain): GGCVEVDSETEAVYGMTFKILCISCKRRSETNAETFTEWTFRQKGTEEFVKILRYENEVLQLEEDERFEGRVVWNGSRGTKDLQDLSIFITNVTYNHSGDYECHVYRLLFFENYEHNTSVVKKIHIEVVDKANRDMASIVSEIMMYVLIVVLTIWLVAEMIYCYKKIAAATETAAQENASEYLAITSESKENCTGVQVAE
Description: Toxin-550 peptides were assayed on the IonFlux HT using standard running conditions for measurement of NaV 1.7 current. Briefly, HEK293 cells overexpressing the alpha and beta-1 subunits of human Nav1.7 (PrecisION, Millipore) were trypsinized, brought up in serum-free media and allowed to shake at room temperature for 30 minutes. Compounds were diluted into standard extracellular Ringer's solution (ECS) at desired concentration. Cells were washed once with ECS and then brought up in ECS at a concentration of 4 million cells/mL. IonFlux HT plate was set up according to standard protocols.
NaV 1.7 current was measured on the IonFlux according to the following voltage step protocol:
1. The cells were held at −90 mV with a period of 10 seconds.
2. The cells were stepped from −90 mV to −120 mV for 100 ms. • a. then to −10 mV for 30 ms and • b. then back to −90 mV for 30 ms.
Baseline current was allowed to stabilize for 5 minutes, then a control baseline (ECS only) was established. Compound was applied for 20 minutes, and then a positive control (peptide NaV1.7 blocker) was applied.
Leak subtraction was then performed on the data and the resulting currents are analyzed as follows: • 1. […] For a given time (e.g. 10 minutes post-compound addition), percent block was calculated as I/Imax.

[1] = In vivo pharmacokinetic (PK) study for half-life extension; conditions: mouse, plasma, mice
Description: Lipid conjugated relaxin or other therapeutic agents are dosed in mice using sc, po, iv dosing. Plasma levels of TA are determined by ms, lgr7, glp1r and/or gcgr activation at different time points (e.g., i.v. PK 5 min, 0.5 h, 1 h, 2 h 4 h, 8 h, 24 h, 48 h, 96 h & 144 h and s.c. PK. 15 min, 0.5 h, 1 h, 2 h, 4 h, 8 h, 24 h, 48 h, 96 h and 144 h). Select PK data are shown in FIGS. 11, 12, and 15, and Table 2.

LGR7 = molecular target: T2, LGR7 (Homo sapiens, UniProt Q9HBX9); assay: LGR7 CRE-Luc reporter gene assay (relaxin bioactivity); type: cell-based; conditions: HEK293T cells expressing LGR7 and CRE-Luc; EC50 after non-linear curve fitting
T2 construct: expressed in transfected cells
T2 sequence (Q9HBX9 1-757): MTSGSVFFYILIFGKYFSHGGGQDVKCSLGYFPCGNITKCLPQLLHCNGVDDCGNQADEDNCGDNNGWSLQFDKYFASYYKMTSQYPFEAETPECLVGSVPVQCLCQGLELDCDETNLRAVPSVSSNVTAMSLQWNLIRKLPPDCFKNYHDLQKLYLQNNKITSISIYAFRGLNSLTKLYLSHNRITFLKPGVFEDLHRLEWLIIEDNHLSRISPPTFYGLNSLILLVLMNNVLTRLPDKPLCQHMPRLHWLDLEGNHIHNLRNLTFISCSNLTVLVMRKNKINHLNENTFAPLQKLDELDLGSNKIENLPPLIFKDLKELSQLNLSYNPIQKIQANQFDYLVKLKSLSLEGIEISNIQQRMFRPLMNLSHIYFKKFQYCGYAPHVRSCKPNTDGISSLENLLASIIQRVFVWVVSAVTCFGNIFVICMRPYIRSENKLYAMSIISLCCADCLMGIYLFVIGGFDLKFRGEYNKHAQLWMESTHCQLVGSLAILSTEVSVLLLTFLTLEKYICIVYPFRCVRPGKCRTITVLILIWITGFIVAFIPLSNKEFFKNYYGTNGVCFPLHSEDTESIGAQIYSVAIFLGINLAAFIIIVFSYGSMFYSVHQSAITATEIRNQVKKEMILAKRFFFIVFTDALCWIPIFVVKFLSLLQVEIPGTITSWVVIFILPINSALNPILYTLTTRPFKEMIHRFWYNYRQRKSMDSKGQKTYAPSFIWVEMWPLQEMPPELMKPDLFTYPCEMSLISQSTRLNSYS
Description: Relaxin 2 signals through leucine-rich repeat-containing GPCRs (i.e. LGR7 (RFXR1)). The bioactivity of wild-type relaxin peptides was determined based on the stimulation of adenylate cyclase activity in HEK293T cells stably expressing recombinant LGR7. Stable LGR7 expressing cells were maintained in Dulbecco's modified Eagle's medium/F-12 media supplemented with […] Zeocin (Invitrogen). A cyclic AMP responsive element driven luciferase (CRE-Luc) reporter line was generated by lentiviral transduction of these LGR7 expressing HEK293T cells with CRE-Luc lentivirus (Qiagen) and selected with puromycine (2 μg/mL) for two weeks. A reporter gene assay was used to detect cAMP levels and LGR7 activation by relaxin.
Assay detail: HEK293T cells expressing LGR7 and CRE-Luc are seeded at a density of 5×10^3 cells per well in 50 μl of Dulbecco's modified Eagle's medium/F-12 medium containing 10% FBS in 384-well solid bottom white plates. Cells are pre-incubated at 37° C. for overnight. Different concentrations of relaxin peptides (from 0.01 nM to 1000 nM) were added in triplicate, incubated for 18 hours and luciferase activity was detected by adding […] of Bright Glo (Promega). Luminescence was recorded on Envision (Perkin Elmer). EC50 is calculated after non-linear curve fitting (see FIG. 3 for relaxin H2 dose response curve).

[2] = iv, i.v., read-out: Half-life (hours) i.v. (converted)
[3] = sc, s.c., read-out: Half-life (hours) s.c. (converted)

Compound	Activity: % block at 100 nM (human Nav1.7)	half-life [1, 2]	half-life [1, 3]	EC50 (LGR7)
550-: Toxin-550 peptide, probably SEQ ID NO: 30 (ECIGMFKSCDPENDKCCKGRTCSRKHRWCKYKL) [Entry 550-]	87% block			
CC[C@H](C)[C@@H]1NC(=O)[C@H](C)NC(=O)[C@H]([C@@H](C)CC)NC(=O)[C@H](CCC(N)=O)NC(=O)[C@H](C)NC(=O)[C@H](CCCNC(=N)N)NC(=O)[C@H](C(C)C)NC(=O)[C@H](CC(C)C)NC(=O)[C@H](CCC(=O)O)NC(=O)[C@H](CCCNC(=N)N)NC(=O)CNC(=O)[C@@H](NC(=O)[C@H](CC(C)C)NC(=O)[C@H](CCCCN)NC(=O)[C@@H](NC(=O)[C@@H](NC(=O)[C@H](CCC(=O)O)NC(=O)[C@H](CCC(=O)O)NC(=O)[C@H](CCSC)NC(=O)[C@H](Cc2c[nH]c3ccccc23)NC(=O)[C@H](CO)NC(=O)[C@H](C)N)C(C)C)[C@@H](C)CC)CSSC[C@@H]2NC(=O)[C@@H](NC(=O)[C@H](CCCCN)NC(=O)[C@H](CC(N)=O)NC(=O)[C@H](C)NC(=O)[C@H](CC(C)C)NC(=O)[C@H](C)NC(=O)[C@H](CO)NC(=O)[C@H](Cc3ccc(O)cc3)NC(=O)[C@H](CC(C)C)NC(=O)[C@@H](N)CSCC(=O)NCCOCCOCCC(=O)NCCOCCOCCC(=O)NCCCC[C@H](NC(=O)CCCCCCCCCCCCCCCCC(=O)O)C(=O)O)CSSC[C@H](NC(=O)CNC(=O)[C@H](C(C)C)NC(=O)[C@H](Cc3c[nH]cn3)NC2=O)C(=O)N[C@@H]([C@@H](C)O)C(=O)N[C@@H](CCCCN)C(=O)N[C@@H](CCCNC(=N)N)C(=O)N[C@@H](CO)C(=O)N[C@@H](CC(C)C)C(=O)N[C@@H](C)C(=O)N[C@@H](CCCNC(=N)N)C(=O)N[C@@H](Cc2ccccc2)C(=O)N[C@H](C(=O)O)CSSC[C@@H](C(=O)NCC(=O)N[C@@H](CCSC)C(=O)N[C@@H](CO)C(=O)N[C@H](C(=O)N[C@@H](Cc2c[nH]c3ccccc23)C(=O)N[C@@H](CO)C(=O)O)[C@@H](C)O)NC1=O [Relaxin-B-D1A, A-Q1C-FA2]		3.5 h	7.8 h	
CCCCCCCCCCCCCC(=O)NCCOCCOCCNC(=O)CSC[C@H](NC(=O)[C@H](Cc1c[nH]c2ccccc12)NC(=O)[C@@H](NC(=O)[C@H](CO)NC(=O)[C@H](CCSC)NC(=O)CNC(=O)[C@@H]1CSSC[C@@H](C(=O)O)NC(=O)[C@H](Cc2ccccc2)NC(=O)[C@H](CCCNC(=N)N)NC(=O)[C@H](C)NC(=O)[C@H](CC(C)C)NC(=O)[C@H](CO)NC(=O)[C@H](CCCNC(=N)N)NC(=O)[C@H](CCCCN)NC(=O)[C@H]([C@@H](C)O)NC(=O)[C@@H]2CSSC[C@H](NC(=O)[C@H](CCCCN)NC(=O)[C@H](CC(N)=O)NC(=O)[C@H](C)NC(=O)[C@H](CC(C)C)NC(=O)[C@H](C)NC(=O)[C@H](CO)NC(=O)[C@H](Cc3ccc(O)cc3)NC(=O)[C@H](CC(C)C)NC(=O)[C@@H](N)CCC(N)=O)C(=O)N[C@@H](CSSC[C@H](NC(=O)[C@H](CC(C)C)NC(=O)[C@H](CCCCN)NC(=O)[C@@H](NC(=O)[C@@H](NC(=O)[C@H](CCC(=O)O)NC(=O)[C@H](CCC(=O)O)NC(=O)[C@H](CCSC)NC(=O)[C@H](Cc3c[nH]c4ccccc34)NC(=O)[C@H](CO)NC(=O)[C@H](CC(=O)O)NC(=O)CNC(=O)CNC(=O)[C@H](CO)NC(=O)CNC(=O)[C@H](CCC(N)=O)NC(=O)[C@H](Cc3ccccc3)NC(=O)[C@H](Cc3ccc(O)cc3)NC(=O)[C@H](CC(C)C)NC(=O)[C@H](CC(N)=O)NC(=O)[C@H](CCC(=O)O)NC(=O)[C@H](Cc3c[nH]cn3)NC(=O)[C@H](Cc3c[nH]cn3)NC(=O)[C@H](Cc3c[nH]cn3)NC(=O)[C@H](Cc3c[nH]cn3)NC(=O)[C@H](Cc3c[nH]cn3)NC(=O)[C@H](Cc3c[nH]cn3)NC(=O)[C@H](Cc3c[nH]cn3)NC(=O)[C@@H](N)Cc3c[nH]cn3)C(C)C)[C@@H](C)CC)C(=O)NCC(=O)N[C@@H](CCCNC(=N)N)C(=O)N[C@@H](CCC(=O)O)C(=O)N[C@@H](CC(C)C)C(=O)N[C@@H](C(C)C)C(=O)N[C@@H](CCCNC(=N)N)C(=O)N[C@@H](C)C(=O)N[C@@H](CCC(N)=O)C(=O)N[C@@H]([C@@H](C)CC)C(=O)N[C@@H](C)C(=O)N[C@@H]([C@@H](C)CC)C(=O)N1)C(=O)N[C@@H](Cc1c[nH]cn1)C(=O)N[C@@H](C(C)C)C(=O)NCC(=O)N2)[C@@H](C)O)C(=O)O [Tev-Relaxin-B-S29C-FA1]				1 nM
550-4-GSCGG-FA1: 550-4-GSCGG (SEQ ID NO: 28) with lipid FA1 (GSCGGECIGMFKSCDPENDKCCKGRTCSRKHRWCKYKL; cysteine pairing not given here; also: lipid FA1)	85% block			
CCCCCCCCCCCCCC(=O)NCCOCCOCCNC(=O)CSC[C@H](NC(=O)[C@H](Cc1c[nH]c2ccccc12)NC(=O)[C@@H](NC(=O)[C@H](CO)NC(=O)[C@H](CCSC)NC(=O)CNC(=O)[C@@H]1CSSC[C@@H](C(=O)O)NC(=O)[C@H](Cc2ccccc2)NC(=O)[C@H](CCCNC(=N)N)NC(=O)[C@H](C)NC(=O)[C@H](CC(C)C)NC(=O)[C@H](CO)NC(=O)[C@H](CCCNC(=N)N)NC(=O)[C@H](CCCCN)NC(=O)[C@H]([C@@H](C)O)NC(=O)[C@@H]2CSSC[C@H](NC(=O)[C@H](CCCCN)NC(=O)[C@H](CC(N)=O)NC(=O)[C@H](C)NC(=O)[C@H](CC(C)C)NC(=O)[C@H](C)NC(=O)[C@H](CO)NC(=O)[C@H](Cc3ccc(O)cc3)NC(=O)[C@H](CC(C)C)NC(=O)[C@@H](N)CCC(N)=O)C(=O)N[C@@H](CSSC[C@H](NC(=O)[C@H](CC(C)C)NC(=O)[C@H](CCCCN)NC(=O)[C@@H](NC(=O)[C@@H](NC(=O)[C@H](CCC(=O)O)NC(=O)[C@H](CCC(=O)O)NC(=O)[C@H](CCSC)NC(=O)[C@H](Cc3c[nH]c4ccccc34)NC(=O)[C@H](CO)NC(=O)[C@H](C)N)C(C)C)[C@@H](C)CC)C(=O)NCC(=O)N[C@@H](CCCNC(=N)N)C(=O)N[C@@H](CCC(=O)O)C(=O)N[C@@H](CC(C)C)C(=O)N[C@@H](C(C)C)C(=O)N[C@@H](CCCNC(=N)N)C(=O)N[C@@H](C)C(=O)N[C@@H](CCC(N)=O)C(=O)N[C@@H]([C@@H](C)CC)C(=O)N[C@@H](C)C(=O)N[C@@H]([C@@H](C)CC)C(=O)N1)C(=O)N[C@@H](Cc1c[nH]cn1)C(=O)N[C@@H](C(C)C)C(=O)NCC(=O)N2)[C@@H](C)O)C(=O)O [Relaxin-B-D1AS29C-FA1]		0.5 h	1.2 h	
